From patent publication US20150010572A1 (SAMSUNG ELECTRONICS, published 2015)

T1: mutant Ang-2 protein, D448 substituted with alanine (FLAG-tagged at N-terminal) (human, UniProt O15123 281-496, limits assumed)
T1 chain: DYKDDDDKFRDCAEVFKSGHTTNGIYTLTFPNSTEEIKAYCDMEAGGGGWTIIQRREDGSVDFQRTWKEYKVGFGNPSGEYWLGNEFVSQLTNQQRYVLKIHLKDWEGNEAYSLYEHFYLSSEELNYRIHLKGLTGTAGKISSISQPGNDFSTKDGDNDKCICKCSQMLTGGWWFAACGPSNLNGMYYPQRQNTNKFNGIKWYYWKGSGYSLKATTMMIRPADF

T2: mutant Ang-2 protein, S417 substituted with alanine (FLAG-tagged at N-terminal) (human, UniProt O15123 281-496, limits assumed)
T2 chain: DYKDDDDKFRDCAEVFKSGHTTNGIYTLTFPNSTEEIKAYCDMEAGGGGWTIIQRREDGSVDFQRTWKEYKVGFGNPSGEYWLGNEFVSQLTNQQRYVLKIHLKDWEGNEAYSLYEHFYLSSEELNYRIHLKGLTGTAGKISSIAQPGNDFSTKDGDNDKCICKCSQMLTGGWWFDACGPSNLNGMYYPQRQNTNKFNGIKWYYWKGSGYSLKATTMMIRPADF

T3: mutant Ang-2 protein, Q418 substituted with alanine (FLAG-tagged at N-terminal) (human, UniProt O15123 281-496, limits assumed)
T3 construct: also called Q418A mutant protein; Ang-2 protein having Q418A mutation
T3 chain: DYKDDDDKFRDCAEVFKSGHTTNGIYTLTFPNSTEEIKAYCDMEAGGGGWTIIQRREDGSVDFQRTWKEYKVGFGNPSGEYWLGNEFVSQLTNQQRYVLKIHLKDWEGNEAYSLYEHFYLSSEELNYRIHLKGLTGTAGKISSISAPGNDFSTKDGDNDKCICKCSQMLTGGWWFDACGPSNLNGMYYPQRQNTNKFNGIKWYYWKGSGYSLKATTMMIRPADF

T4: mutant Ang-2 protein, I434 substituted with alanine (FLAG-tagged at N-terminal) (human, UniProt O15123 281-496, limits assumed)
T4 construct: also called 1434
T4 chain: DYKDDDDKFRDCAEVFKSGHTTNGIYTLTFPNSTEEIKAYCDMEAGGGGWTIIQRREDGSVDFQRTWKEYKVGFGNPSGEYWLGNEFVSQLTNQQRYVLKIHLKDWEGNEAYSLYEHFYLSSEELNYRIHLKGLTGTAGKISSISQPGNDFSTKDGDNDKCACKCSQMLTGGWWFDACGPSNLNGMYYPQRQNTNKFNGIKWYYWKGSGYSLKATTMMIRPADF

T5: mutant Ang-2 protein, N421 substituted with alanine (FLAG-tagged at N-terminal) (human, UniProt O15123 281-496, limits assumed)
T5 chain: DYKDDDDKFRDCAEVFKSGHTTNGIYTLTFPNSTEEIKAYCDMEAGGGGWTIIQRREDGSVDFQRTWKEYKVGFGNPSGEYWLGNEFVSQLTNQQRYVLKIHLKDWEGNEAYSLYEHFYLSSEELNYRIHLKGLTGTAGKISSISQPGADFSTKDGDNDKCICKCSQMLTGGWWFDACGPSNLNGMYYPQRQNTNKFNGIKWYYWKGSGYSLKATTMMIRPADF

T6: mutant Ang-2 protein, N467 substituted with alanine (FLAG-tagged at N-terminal) (human, UniProt O15123 281-496, limits assumed)
T6 chain: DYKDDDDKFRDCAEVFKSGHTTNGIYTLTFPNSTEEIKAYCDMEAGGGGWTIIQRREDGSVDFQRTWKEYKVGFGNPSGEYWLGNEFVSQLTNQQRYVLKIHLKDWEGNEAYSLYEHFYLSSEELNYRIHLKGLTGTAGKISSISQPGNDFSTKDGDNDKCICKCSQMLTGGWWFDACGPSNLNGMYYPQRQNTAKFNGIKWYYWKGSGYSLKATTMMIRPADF


Key:
Experiment in all cases: ELISA, antibody coated, 250 ng FLAG-tagged mutant Ang-2, anti-FLAG-HRP, OD450 relative to native Ang-2
[1] = target: T1, mutant Ang-2 protein, D448 substituted …
Method: (§1) Each well of a 96-well MaxiSorp™ flat-bottom plate (Nunc) was coated with 50 ul (microliter) of 1000 nM antibodies (Example 2). Then, the plate was washed five times with a 0.05% (v/v) Tween-20 containing PBS (PBST) and blocked with a 1% (v/v) BSA containing PBS at a room temperature for 2 hours. 250 ng of each mutant Ang-2 protein obtained by substituting S417, Q418, P419, N421, 1434, D448, A449, P452, Y460, N467, K468, or F469 residue of Ang-2 protein tagged with a FLAG sequence ([…], Sigma) at its N-terminal with alanine was added to each well of the plate, which was then allowed to react at a room temperature for 2 hours.
(§2) The plate was washed five times with a 0.05% (v/v) Tween-20 containing PBS, reacted with an anti-FLAG antibody (SIGMA) conjugated with HRP which was diluted in a 1% (v/v) BSA containing PBS at a ratio of 1:5,000 (v/v) at a room temperature for 1 hour, and washed five times with a 0.1% (v/v) Tween-20 containing PBS.
(§3) Finally, 50 ul of TMB substrates (Cell signaling) was added to each well of the plate to induce color development reaction at a room temperature for 3 min. and the reaction was ceased by the addition of 50 ul of Stop solution (Cell signaling) and then, OD450 values were measured on a plate reader (Molecular Devices). By comparing binding affinities with mutated Ang-2 to those of unmutated Ang-2, each epitope of Ang-2 antibodies was identified. The thus obtained measurement results of the binding affinities (%) of mutant Ang-2 against the binding affinity of the native Ang-2 are shown in the following Table 9.

[2] = target: T2, mutant Ang-2 protein, S417 substituted …
Method: as §1, §2, §3

[3] = target: T3, mutant Ang-2 protein, Q418 substituted …
Method: as §1, §2, §3

[4] = target: T4, mutant Ang-2 protein, I434 substituted …
Method: as §1, §2, §3

[5] = target: T5, mutant Ang-2 protein, N421 substituted …
Method: as §1, §2, §3

[6] = target: T6, mutant Ang-2 protein, N467 substituted …
Method: as §1, §2, §3

| Binder | % at RBD binding (mutant Ang-2 against native Ang-2) [1] [%] | % at RBD binding (mutant Ang-2 against native Ang-2) [2] [%] | % at RBD binding (mutant Ang-2 against native Ang-2) [3] [%] | % at RBD binding (mutant Ang-2 against native Ang-2) [4] [%] | % at RBD binding (mutant Ang-2 against native Ang-2) [5] [%] | % at RBD binding (mutant Ang-2 against native Ang-2) [6] [%] |
| --- | --- | --- | --- | --- | --- | --- |
| SAIT-Ang-2-AB-m8B3 (antibody, V domains shown, also called KCLRF-BP-00293) VH: DVQLQESGPGLVKPSQSLSLSCTVTGYSIASDYAWNWIRQFPGNKVEWMGYINYRGNTDYNPSLKSRSSINRDTSKNQFFLQLNSVTTGDTATYYCARGNFEGAMDYWGQGTSVTVSS VL: TIVMTQTPKFLLVSAGDRITITCKASQSVSNDVAWYQQKPGQSPKLLIYYASNRYPGVPDRFTGSGYGTDFTFTISTVQAEDLAVYFCQQDYTSPWTFGGGTELEIK | 96.1 | 95.4 | 4.1 | 99.4 | 102 | 95.1 |
| SAIT-Ang-2-AB-m2E7 (antibody, V domains shown, also called KCLRF-BP-00294) VH: DLQLQESGPGLVKPSQSLSLTCTVTGYSITSDYAWNWIRQFPGNKLEWMGYISYSGSTSYNPSLKSRISITRDTSKNQFFLQLNSLTTEDTATYYCARGDYGNYVGPMDYWGQGTSVTVSS VL: SIVMTQTPKFLLVSAGDRVTITCKASQSVSNDVAWYRQKPGQSPKLLIYYASNRYTGVPDRFTGSGYGTDFTFTISTVQAEDLAVYFCQQDYSSPLTFGARTKLELK | 96.9 | 98.3 | 0.6 | 102 | 98.9 | 96 |
